Reference: a protein production outcome set (Wang et al. 2014)

Experiment: label from the status in PepcDB records
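Further: failed if final PepcDB status was selected cloned or expressed and not failed if soluble or beyond.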

Sequence: MIPDELKHYLTDDWYAVVREHKLLELPAKVTVQQISEQYLAHKKSVKSTSASKEVAINDVLDGIVEYFNVMLGSQLLYKFERTQYADVMQKHPDTPLSELYGSFHLLRLFVRLGSMLSYSALDQQSMQNLLTHVQDFLKFLVKNSSIFFSMSNFINVDPEYVRNAQ
- protein production: failed

Sequence: MTPPIINLPQRLGRSRRLAYGAATAGAWMVYFYLWAPLATLIAWFFGLRSAYTELYLQHNALDPFALGSLPVIALMSAITTVGWAEYNRLRFVNADKRRRPRTVAEPDVDQRLGATEQLGTLLRHSRISSVAMDKFARPVAVRVVRHR
- protein production: failed

Sequence: MTTIALLGNPNVGKTTLFNALTGSNQHVGNWPGVTVDKKEGFFNSNKIVDLPGIYALDTFSNEEKVSKKFLESGDVDLILNIVDASNLDRNLYLTMQLKDFKKPIVLLLNMNDIAEKKGIKIDPKKLEKAFNLKVIPITASKKEGLDEVKEFLNKGNFEKYLDKNTYSFKDEAHTYKFIEDKLSDCFNRSGNSSTTLTDKLDKVFLNPWLAYPLFIALMYFVFQFTFSWVGQPISDALDGFLGDTFMPYLSDLLSGTAPWFQSLLVDGIVAGVGGIIVLLPIILALFLCIAILEDSGYMARVAFLMDKFMRKIGLSGKAFLPMITGFGCTVPAIMSARTLESEKDRKLTALLAPFMSCNARLPVYVIFAGLFFPDNASMVVASLYILGILVAFILGLVFKNTLFKKDEEPFIIELPEYKVPEVRSVLAQLWDKSKSFLKKAGTIIFAMSVVIWFLQSFNFTGMVEDITHSFLYNIGSFIAPIFAPLGFGDWQASVSLLTGLMAKETIISTMEVIYKGDLTHMLPQFFTALSSYSFMVFVLLYTPCISVVGVMKKEYGGKFTVLSVIFQFLVAWISAFIIYHIGLLIF
- protein production: failed

Sequence: FTLEEEDITGTWYVKAMVVDKDFPEDRRPRKVSPVKVTALGGGNLEATFTFMREDRCIQKKILMRKTEEPGKFSAYGGRKLIYLQELPGTDDYVFYCKDQRRGGLRYMGKLVGRNPNTNLEALEEFKKLVQHKGLSEEDIFMPLQTGSCVLEH
- protein production: failed

Sequence: MKRATLPRGRVAGLTAGSLAAVGLALALTLGGVSVVPSGFDGIEDLPLPGGADLGDHPYTVTAELQDVLSLVPHSAVRVNDVAVGRITGIELGEDDWSARVTMEINGEVRLPADATARLEQSSLLGEKYVQLVAPAKETGTGRLTDGSVIPLARTSRNTEVEEVFGALSLLLNGGGVNQLKTITRELNAALGGREPEVRSMLKRVNTLVGDLDDHRGDITDALDAVNRLSSTLATRKDDVGTVLTDLSPGLKTLERQRGSLLTMLRSLDTLSGVAVSTINASKDDMIADLKAVAPTLRALADAGTDLPDSLQVLLTYPFTDEVLRGVKGDYLNTYLSMVAVPGTEVIPPLVDGDTPGPTASATAQDGPDPAAKNPAAKNPISRKRSSGQRGSASPLPLPSVSGAGPASGGEHGLEHHHHHH
- protein production: not failed

Sequence: MKKFILIMVLGSALFTGGAIYDGIDNQDMTQPTIHFWEKNPMKLNLYAKGQCTYYVFDRIRQDGNMISNRWGDAKYWANEASKEGYKVNDNPSVGSILQYPKGQHGHVAYVDKVNHDGSLTVFDMNYRKPYEVTKRTVYEYQVDEFNYIHPKKNQSENA
- protein production: failed

Sequence: MEEENNLNSKDTQNTFLKGSAWMTFGSIASRILGALYIIPWYAWMGQYGNIANALTARSYNIYTIFILISTAGIPGAIAKQVAKYNALNEYGIGRRLFHKGLILMAILGVVSAAIMYFASPLLASNGSQSDPRQIAVMRSLSYAILIIPILSIMRGYFQGYADMMPSAMSQFVEQFARVVWMLLTAFVIMQVQHGSYVHAVIQSNLAAAVGAAFGIGLLVWFLFSRRKQLDYLVANSNNRLRVSTTELFAEIIEQAIPFIIIDSGITLFSLVDQYTFHPMIAGLVHASSDAIEDWYALFGLNANKLIMIIVSLASAMAVTAIPLLSAAHTRGDYKSISRQIANTMDLFLFVMIPAAFGMAAISRPIYTVFYGPDQLGSNVLYLSAFTAISLGLFTVLMAILQGLSENGLAIKYLVLGLILKGILQYPMIFLFKIYGPLVATNLGLLVIVLLSLKHLEVQYNFNLNRTSRRLVGITAFSIGMFIIVKLVEMGLGKFLSPDRRISALILVIVAVSIGIIFYGFAALKTDLAQKIMGSKIESILVRLRIHD
- protein production: failed

Sequence: MDAKVAFSPHSDANGRLDEIGADIDTAQSSVLFSLAFLGQMTRGAIGPALGRALERPEVHVMGIADAEVRAGNLGLNVLTPDNRRRVVRAAALTGNVPPPFLTEPSGLAGVDGNQRGTRMHHKFVVLDFDKPTARVYLGSYNFSNPADDENGENLVVVRDRTVATSYMIEALRMYDHLEHHHHHH
- protein production: failed

Sequence: MDLLAMNIPVSLQSKPPLWLLAELTYRCPLQCAYCSNPLDYAAVKQELSTDEWKDVFRQARAMGSVQLGFSGGEPLLRQDLSELIKYAHELGFYTNLITSGIGLTEQKIAEFSEAGLDHIQISFQASDPALSEILSGSRKAFQQKQAMALAVKKHRYPMVLNFVIHRFNIEQIDQIIELSLELNADYVELATCQFYGWAKLNQAALLPTPEQISYAQARVQAYRQYIDQHHLKTKLLLVAPDYYQERPKKCIGGWGQIFITVSPDGTVLPCQSAKDLPLEFPTIQDQSLKTIWNEAFAFNAFRGTDWMQEPCRSCPDKDKDLGGCRCQAYMLTKNMYATDPVCSKSPVHHQIVEARLQTQCSKPDISDLKLRNPQNSKLFFKRASDADSLL
- protein production: failed

Sequence: MKQFLITGGTGMVGSQLVNKLKNRDVHITILTRSDKQSDDPKISYVNWSKDGWMSQVPDIDVVVNLAGATLNKRWTPSYKQLIMTSRIQSTQSLVDLFSQREHKPEVLFNASAMGYYPPSLYHTYTEKYQTHPFDFLSDVVYQWERFAKRFESFGTRVVLGRFSMILSNDGGALQTMKLPYKFFVGGKLGSGFQWYSWIHINDLVRAILFTIDNPNAKGPFNMAAPIAERQNLFGYTLARVMHRPHETWVPSFLMRLALGEMSTVVLDTQKVLPNKLDALGFTFNYSNLKIAFEDLIDALEHHHHHH
- protein production: failed

Sequence: IYGLVQRCVIIQKDDNGFGLTVSGDNPVFVQSVKEDGAAMRAGVQTGDRIIKVNGTLVTHSNHLEVVKLIKSGSYVALTVQGRPPGSPQIPLADSEVEPSVIGHMSPIMTSPHSPGASGNMERITSPVLMGEENNVVHNQK
- protein production: failed

Sequence: MSYLLRSDPVSRIHPEPQSLTSFDHFDLLPDSLLLLIFDKVADVKDLGRCCIVSRRFHSLVPFVENVLVRVDCVISDDDSSSSDENHRFSLNTASISDAGGAGGSFSALFRLVFAPIFKPFQMLGQILGPKRSSSSFDASFSAINDEIGVTHHSPTQVLKNFGEIRFLKIELPTGELGIEDGILLKWRADFGSTLDNCMILGASSVIQSNSVKNHENSVDEDNGNIPESFYTNGGLKLRVVWTISSLIAASARHYLLQPIINEHKSLDRLVLSDADGQGVLCMNREQLEELRVTPLSASSASKRTLVPALNMRLWYAPELDLPDGTVLKGATLVAIRPSESKKEVCDASWLSDAFEEPFGTVAKMLIKRRTYCLEMNSF
- protein production: failed

Sequence: MKRVANWLAITGFVVHAISLVAGLQGHTWETISKGYFLQMLSWSMLLIYLFVWWKFKLDFLSALASPFALLIYLSSFKVAEVQSKLPESLSGLFFGLHIGTLFLSFGLMAMAFGAGVLFLHMERKIKTKEPLTGFRKDLPALSTFDRVNRLCVVWGFPLFTLGIVSGFVWAHPAWGKVITWDPKEIVSLAVWVMYALLFHQRVALGWQGRKPAVMVIWIFAVSVFSLIVVNVFMPTHHSFIQQ
- protein production: failed

Sequence: MPPPTASTPDDSADPGPDFADVPPTDLVKVGFIFRPHGLDGELKIDPSATDDPARFEVLPTVFVGPHPRRVVRHDIASVRYQKTKRGITVILGLDGIVDRDDAEAVAKMDVFATEAALGLEDDELFADDLVGWTVVTEEGAVQGTVADFMEMPAQDLFVVRTPEDTEAMIPAIDDFIIEIDEEAERIVVRPIDGLMDALEHHHHHH
- protein production: failed

Sequence: PQKIFTPSAEIVKYTKIIAMEKLYAVFTDYEHDKVSRDEAVNKIRLDTEEHLKEKFPEVDQFEIIESFNIVAKEVFRSIILNEYKRCDGRD
- protein production: not failed

Sequence: MAGAQPGVHALQLEPPTVVETLRRGSKFIKWDEETSSRNLVTLRVDPNGFFLYWTGPNMEVDTLDISSIRDTRTGRYARLPKDPKIREVLGFGGPDARLEEKLMTVVSGPDPVNTVFLNFMAVQDDTAKVWSEELFKLAMNILAQNASRNTFLRKAYTKLKLQVNQDGRIPVKNILKMFSADKKRVETALESCGLKFNRSESIRPDEFSLEIFERFLNKLCLRPDIDKILLEIGAKGKPYLTLEQLMDFINQKQRDPRLNEVLYPPLRPSQARLLIEKYEPNQQFLERDQMSMEGFSRYLGGEENGILPLEALDLSTDMTQPLSAYFINSSHNTYLTAGQLAGTSSVEMYRQALLWGCRCVELDVWKGRPPEEEPFITHGFTMTTEVPLRDVLEAIAETAFKTSPYPVILSFENHVDSAKQQAKMAEYCRSIFGDALLIEPLDKYPLAPGVPLPSPQDLMGRILVKNKKRHRPSAGGPDSAGRKRPL
- protein production: failed

Sequence: MNRNGLLIALALFAGIGLTFGLFPGLDLWLAGLFYDTAAKTFPMRSMPDLEFARDFAMWVAWAIAAPSIFALVYKMIRPDRPLVMPGRTVAFLLISITLSAGVLTNMTFKSHWGRPRPAAVTEFNGPWQFKAWWDNSGACPKNCSFFSGEGATAYWTFAPAALTPPAVRPYAYAAAFTFGTVTSGLRMAFGGHFFTDVAIAGLVTFLVIWLLYALIYRWAWSRTSDEAIDAALTRAFWPLYRLRLKKWRGQDIGPAPAA
- protein production: failed

Sequence: MNQKISPPSQKLDGLFLLALSMAVFFVGVTEFMLSSMLGPLAQAFHTTTSGAAWLISSYAFSYAIAAPLLGYFSDRMQRRKLLLLALVLFAVDTLAIVIAPTLEIAVVLRVIGGIASAIIIPTTFALVAEVVAPQRQAGAMGQVMLGMTLGIAAGPALAGLLSDFFGWAAPFLLVSCGCVLVFLMARQRLPVQAVAPRAEGHALGWCRQWSILRPLIAKGAWNGTGVAGLLLSGEVLRQRYGFSTAQIGVSIAAFGVGLAVGNLAAGYLRRYLKRDEDMLLLVLALLVLSMSTFMLLPLPLPVALCCLGAWGAALGLGAPAGTVVLASRSGPDKGMVLSFAETFNNIAILASVPLAVRLLELKGPPATLWVLGIGLGIGAWFTVLDWFASRRSNEALPLRD
- protein production: failed

Sequence: MLAPGMGEWVYKANLFLFGEFAYYYPFFLFILNYVYYKRNYKLANFTRRELFGIGFAFFSSLLLFAVFYPNSGYILELAYAIFSTILGHTGSGIFALLLLLFSLVLLFPKFAKEILKIELDFTYLLKVEQAFKSLLMRVFGGENEKEDVGKSEPIVPKLNILQDSIYGNLQINKKGETNNLEQIIKDSNINASKNSITTAKENFEKLKNQILDETIEIDKQSLKESRSFVHEHSQQVRNFAQKASKMSISLDEDFNFISEEEVDMIPERFLKPKKLEDIKQIDTNKNLDEPSYKRKNIEIPVSNQEVKPKIFTKELELRENLIKKEKLEQEYKAYQNEILENKVKQEIKKLEEYDAINSSDIIEGNKYSFNSPKTIKTETEESDKINENKNLDKADNIFEFAPIVEELNHPYIEPTPIKNINEIVIEEKNTLDFIQNTETKIDNEKTNDQEIKLQKAVLAKEIAINQALLREIEQGEIEKPKDFTLPPLDFLANPKEHKQEINESEIDKKIYNLLEKLRRFKIGGDVISTYVGPVVTTFEFRPSADVKVSRILNLQDDLTMALMAKSIRIQAPIPGKDVVGIEVPNDEIQTIYLREILQSEVFKNAKSPLTIALGKDIVGNAFVTDLKKLPHLLIAGTTGSGKSVGINSMLLSLLYRNSPKTLRLMMIDPKMLEFSIYNDIPHLLTPVITDPKKAVNALSNMVAEMERRYRLMADAKTKNIENYNEKMKELGGEKLPFIVVIIDELADLMMTAGKDVEFYIGRLAQMARASGIHLIVATQRPSVDVVTGLIKANLPSRISYKVGQKIDSKVILDAMGAESLLGRGDCLFTPPGTSSIVRLHAPFASEFEIEKIVDFLKDQQSVEYDESFLKDQQSVGVTTNESFDGEADELYEEAKRVILEDGKTSISYLQRRLKIGYNRSANIIEQLTQNGILSEPDAKGQREIL
- protein production: failed

Sequence: MIKHPLKILFMHGLDSSRESTKFHAIESTNKFCITIDYRNLSYNTVADFYQNTIETIQPDLLIGHNLGGYWALKLSSQYHLAAIVANPSLAPLFRDDYPSLTSKELDTDSPKIAYIELGDESLNMYDIQNVLEDYMIVDSIEGGHHRLENPSKLNILIDHIQSEYFSHTIR
- protein production: failed
